B1: ZR + K (SEQ ID NO: 6), histidine-tagged (peptide)
peptide: SFFNNKRK
notes: ZR derivative with a Lys added after Arg7; not shown: histidine tag
B2: ZR + N (SEQ ID NO: 5), histidine-tagged (peptide)
peptide: SFFNNNKR
notes: ZR derivative with one more Asn; not shown: histidine tag
B3: ZR4-ΔN (SEQ ID NO: 3), histidine-tagged (peptide)
peptide: SFFNKR
notes: ZR derivative with one Asn deleted; not shown: histidine tag

molecular target: T1, Aβ42 oligomers (UniProt P05067 672-713); experiment: ELISA on coated Aβ42 oligomers, His-tagged polypeptide at 1 µg per well
T1 construct: domain: Aβ42; Oligomeric state
T1 sequence (P05067 672-713 limits assumed): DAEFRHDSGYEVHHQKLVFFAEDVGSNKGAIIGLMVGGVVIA
Method: 100 μL of monomers, oligomers or fibers of Aβ42, PrP, amylin, insulin or lysozyme were respectively coated onto a 96-well ELISA microplate at 1 μg/well, BSA was used as a negative control. The plate were then placed at 37° C. for 2 h, blocked with 200 μL/well of 3% BSA at 37° C. for 2 h, and washed 3 times with PBS. 100 μL of histidine-tagged ZR polypeptide solution was added, and the plate was incubated at room temperature for 1 h, and then washed 3 times with PBS containing 0.1% Tween-20. 100 μL of HRP-linked antibody 9E10 which can recognize the histidine tag was added to each well, and the plate was incubated at room temperature for 1 h, and then washed 3 times with PBS containing 0.1% Tween-20. 100 μL of TMB was added to each well, and the plate was placed at 37° C. for 20 min. Then, 50 μL of 1 mmol/L sulfuric acid was added to each well to terminate the reaction, and OD450 values were measured using a microplate reader. The above procedure was repeated for 3 times under the same condition.

Compared with B1, B2 is lower in OD450: 0.56 for the first, 0.54 for the second.

First: B3
Second: SAFQNKR (not shown: histidine tag) [ZR4-FN/AQ (SEQ ID NO: 4), histidine-tagged]
The OD450 of the first is higher: 0.49 for the first, 0.47 for the second.

— US20190330271A1 (HANGZHOU WISDOM PANACEA BIOLOGICS, published 2019)
